{"source": "paper PMC2947981", "origin": "cited, not measured here", "key": {"[1]": {"biological_target": "Factor VIIIa2 A2 (Homo sapiens) (UniProt P00451)"}, "[2]": {"biological_target": "Corn trypsin inhibitor (CTI) (Zea mays) (UniProt P01088)", "sequence (P01088 29-138)": "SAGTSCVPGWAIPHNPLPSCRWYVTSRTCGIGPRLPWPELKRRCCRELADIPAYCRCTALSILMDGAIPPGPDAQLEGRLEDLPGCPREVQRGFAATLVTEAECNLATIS"}, "[3]": {"biological_target": "Factor VIIa (Homo sapiens) (UniProt P08709)", "sequence (P08709 61-212, chain 1 of 2)": "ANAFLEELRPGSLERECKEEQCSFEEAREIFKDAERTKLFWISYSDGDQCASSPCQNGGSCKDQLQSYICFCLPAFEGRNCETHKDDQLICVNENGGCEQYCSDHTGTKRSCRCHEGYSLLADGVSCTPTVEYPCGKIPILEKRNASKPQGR", "sequence (P08709 213-466, chain 2 of 2)": "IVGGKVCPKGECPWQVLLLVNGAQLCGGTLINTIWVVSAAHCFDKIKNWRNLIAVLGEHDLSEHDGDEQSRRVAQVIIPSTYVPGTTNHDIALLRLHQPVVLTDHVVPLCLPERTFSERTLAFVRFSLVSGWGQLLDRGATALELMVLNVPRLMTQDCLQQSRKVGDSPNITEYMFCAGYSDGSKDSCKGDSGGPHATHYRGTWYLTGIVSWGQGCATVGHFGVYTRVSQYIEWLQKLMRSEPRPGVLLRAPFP"}, "[4]": {"biological_target": "Thrombin (IIa) (Homo sapiens) (UniProt P00734)"}, "[5]": {"biological_target": "Factor Xa (Homo sapiens) (UniProt P00742)"}, "[6]": {"biological_target": "Factor VIIIa (Homo sapiens) (UniProt P00451)"}, "[7]": {"biological_target": "Factor VIIIa (Homo sapiens) (UniProt P00451)", "remark": "listed apart in the source"}, "[8]": {"biological_target": "Factor VIIIa (Homo sapiens) (UniProt P00451)", "remark": "listed apart in the source"}, "[9]": {"biological_target": "Factor VIIIa (Homo sapiens) (UniProt P00451)", "remark": "listed apart in the source"}, "[10]": {"biological_target": "Factor VIIIa A2 A2 (Homo sapiens) (UniProt P00451)"}, "[11]": {"biological_target": "Factor IXa (Homo sapiens) (UniProt P00740)"}, "[12]": {"biological_target": "Factor IXa (Homo sapiens) (UniProt P00740)", "remark": "listed apart in the source"}, "[13]": {"biological_target": "Factor IXa (Homo sapiens) (UniProt P00740)", "remark": "listed apart in the source"}, "[14]": {"biological_target": "TFPI (Homo sapiens) (UniProt P10646)", "sequence (P10646 29-304)": "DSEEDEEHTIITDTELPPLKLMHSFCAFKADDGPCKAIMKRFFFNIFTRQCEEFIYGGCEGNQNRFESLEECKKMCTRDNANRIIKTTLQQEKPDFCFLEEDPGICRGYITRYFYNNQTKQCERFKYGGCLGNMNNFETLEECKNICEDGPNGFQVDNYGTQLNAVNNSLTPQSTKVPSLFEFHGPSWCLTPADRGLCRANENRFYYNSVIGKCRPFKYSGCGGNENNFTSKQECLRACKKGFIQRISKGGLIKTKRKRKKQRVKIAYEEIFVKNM"}, "[15]": {"biological_target": "TFPI (Homo sapiens) (UniProt P10646)", "remark": "listed apart in the source"}, "[16]": {"biological_target": "Factor Va (Homo sapiens) (UniProt P12259)", "sequence (P12259 29-737, chain 1 of 2)": "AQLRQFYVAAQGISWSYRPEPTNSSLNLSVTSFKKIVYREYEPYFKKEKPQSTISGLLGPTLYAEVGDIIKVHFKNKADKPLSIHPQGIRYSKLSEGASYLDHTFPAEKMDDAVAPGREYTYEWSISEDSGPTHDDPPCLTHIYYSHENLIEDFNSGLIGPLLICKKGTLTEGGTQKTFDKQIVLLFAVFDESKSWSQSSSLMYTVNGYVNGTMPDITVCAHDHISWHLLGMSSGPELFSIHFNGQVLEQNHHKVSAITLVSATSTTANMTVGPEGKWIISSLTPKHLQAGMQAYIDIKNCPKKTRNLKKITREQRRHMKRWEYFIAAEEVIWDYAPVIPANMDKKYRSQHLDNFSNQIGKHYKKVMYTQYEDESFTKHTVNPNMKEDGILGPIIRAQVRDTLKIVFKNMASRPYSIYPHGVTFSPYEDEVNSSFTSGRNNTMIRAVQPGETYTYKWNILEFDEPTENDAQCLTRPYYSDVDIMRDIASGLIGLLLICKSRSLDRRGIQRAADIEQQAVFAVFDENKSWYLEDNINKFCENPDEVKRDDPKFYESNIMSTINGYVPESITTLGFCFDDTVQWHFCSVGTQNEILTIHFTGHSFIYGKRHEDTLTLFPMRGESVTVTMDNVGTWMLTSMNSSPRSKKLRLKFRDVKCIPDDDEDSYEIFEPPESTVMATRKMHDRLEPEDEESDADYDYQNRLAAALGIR", "sequence (P12259 1574-2224, chain 2 of 2)": "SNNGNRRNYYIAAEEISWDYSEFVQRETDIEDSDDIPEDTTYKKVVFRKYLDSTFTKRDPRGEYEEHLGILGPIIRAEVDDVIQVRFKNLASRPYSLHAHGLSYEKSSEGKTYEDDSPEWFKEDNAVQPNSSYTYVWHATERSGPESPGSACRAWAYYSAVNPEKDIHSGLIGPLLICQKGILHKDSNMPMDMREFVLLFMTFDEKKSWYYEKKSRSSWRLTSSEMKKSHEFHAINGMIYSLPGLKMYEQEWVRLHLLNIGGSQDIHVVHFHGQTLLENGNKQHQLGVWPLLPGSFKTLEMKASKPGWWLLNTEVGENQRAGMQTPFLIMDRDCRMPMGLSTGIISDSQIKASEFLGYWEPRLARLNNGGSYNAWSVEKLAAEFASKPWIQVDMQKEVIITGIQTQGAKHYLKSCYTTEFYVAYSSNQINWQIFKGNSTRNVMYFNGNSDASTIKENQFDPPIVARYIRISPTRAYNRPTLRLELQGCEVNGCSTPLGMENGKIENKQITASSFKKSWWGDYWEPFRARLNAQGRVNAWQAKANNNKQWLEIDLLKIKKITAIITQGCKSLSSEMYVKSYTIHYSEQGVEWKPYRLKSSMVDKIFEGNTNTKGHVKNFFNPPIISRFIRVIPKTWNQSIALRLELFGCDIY"}, "[17]": {"biological_target": "TFPI (Homo sapiens) (UniProt P10646)", "remark": "listed apart in the source"}, "[18]": {"biological_target": "Factor Va (Homo sapiens) (UniProt P12259)", "remark": "listed apart in the source"}, "[19]": {"biological_target": "TFPI (Homo sapiens) (UniProt P10646)", "remark": "listed apart in the source"}}, "note": "Values joined by “and” are separate entries in the source; they are usually repeats but may differ in a detail not shown here. Equal entries are not always repeated. Where two headings read alike, the source gives them in different places.", "data": [{"substance": "Factor VIIIa1-L A1-L (from UniProt P00451)", "values": [{"measurement": "Kd", "setting": "[1]", "result": 270, "unit": "nM"}]}, {"substance": "Factor XIIa (from UniProt P00748)", "values": [{"measurement": "Ki", "setting": "[2]", "result": 24, "unit": "nM"}]}, {"substance": "GP1bα (from UniProt P07359)", "values": [{"measurement": "Kd", "setting": "[3]", "result": 20, "unit": "nM"}]}, {"substance": "Fibrin II (Fbn2) (from UniProt P02671)", "values": [{"measurement": "Kd", "setting": "[4]", "result": 10000, "unit": "nM"}]}, {"substance": "TF-VIIa complex (from UniProt P13726)", "values": [{"measurement": "Kd", "setting": "[5]", "result": 860, "unit": "nM"}]}, {"substance": "Factor IXa (from UniProt P00740)", "values": [{"measurement": "Kd", "setting": "[6]", "result": 0.074, "unit": "nM"}, {"measurement": "Kd", "setting": "[7]", "result": 351, "unit": "nM"}, {"measurement": "Kd", "setting": "[8]", "result": 4, "unit": "nM"}, {"measurement": "Kd", "setting": "[9]", "result": 0.55, "unit": "nM"}]}, {"substance": "Factor VIIIa A1/A3-C1-C2 A1/A3-C1-C2 (from UniProt P00451)", "values": [{"measurement": "Kd", "setting": "[10]", "result": 260, "unit": "nM"}]}, {"substance": "Factor VIIIa (from UniProt P00451)", "values": [{"measurement": "Kd", "setting": "[11]", "result": 0.55, "unit": "nM"}, {"measurement": "Kd", "setting": "[12]", "result": 4, "unit": "nM"}, {"measurement": "Kd", "setting": "[13]", "result": 0.074, "unit": "nM"}]}, {"substance": "Factor Xa (from UniProt P00742)", "values": [{"measurement": "Kd", "setting": "[14]", "result": 0.4, "unit": "nM"}, {"measurement": "Ki", "setting": "[15]", "result": 0.0852, "unit": "nM"}, {"measurement": "Kd", "setting": "[16]", "result": "3.3 nM and 0.5 nM"}, {"measurement": "Ki", "setting": "[17]", "result": 0.0652, "unit": "nM"}, {"measurement": "Kd", "setting": "[18]", "result": 0.03, "unit": "nM"}]}, {"substance": "TF-VIIa-Xa complex (from UniProt P13726)", "values": [{"measurement": "Kd", "setting": "[19]", "result": 0.00034, "unit": "nM"}]}]}
